Reference: the DeepSol protein solubility set

Test: soluble on expression in E. coli; label from the status in PepcDB or PDB records

Sequence	soluble on expression in E. coli
MNRMRRSTAFSEHVTFHTVMAKRGTGSKLDREVEIQFTNLQLIGTGSFGAVYKAVLRENDEPIAIKKIKVDDRFKSRELTIMHEMDHPNIIRLLYYYVMQQENCLNFVMEFMPKDLAYVHRQFAHNDKQMPAYSIKLYMFQLLRGIGFLHLHNIVHRDIKPKNLLVDESNGILKICDFGSAKRLEKNEPNITYICSRYYRAPELIFGSKNYDTSIDTWSVGTVVGELLHNSPIFLADSAVDILALQIKAFGTPSKEDMAKWNYEYVHIPYDTITGVGIQKFIGRKLSLSTLELLNSLMKMDPKLRIKPYEALTLPYFDDLRDPHYKLPSGAPIPPLFDWLEREYIANHEIIKDIFPRSEEGDKVECL	not soluble
GMAFMEKIFPDILEAIRNEEIIKESKKIPMPYFGLFALVIFDKVKELGSETSLYEIGEEFGKMLSPKNIEELKKIFKLMNFGDLEIDENKILLKNPPYKIKLSNPPYQWVSKEEPIHDFIAGILAGCLEEIFYYYFVVNEVECVSQGKDKCVFEVKEVDELNK	soluble
MGSDKIHHHHHHMAGEDRDMETETETVCPGNTAGRFAAGEDPAKRDQILAGAWRVFKLKGFDAASMNDITREAGVSKGTIYVYFSNKEDLFAALVDHHRQEFATSMRNILAGTEEVRKGLEQFGKAFANKMICSDMIPAMRSVIGVIDRMPKLAQRFFIAAPNNVRTVLQDFIEHHIALGHLKVDDVELAARQYIELSTGTFFKLRLFGEIDGPVPEEELDRVIASAIKVFMAAYGTDKV	not soluble
TIPISDKITLYIGRNSANNEKLTFGFAKPDDLWLHARGASGSHCVLKGATMRHTSEIQRAAEIAAWHSSAKHSELVPVICTQKKYLKK	not soluble
MEDGPNEFRAWLAEIGPSWIDVFPREEDPTPEYILFGGRWNSSERDEGRRIIVNVACLLFPEESTSACQREIWTSSQYELGNLETQTTLSLRSSCPDGAKLVGGGCSTEAVGSYRYVQVIQSGFAQDDPDAWLCSWANTSDDEQTQAMAMAYCLHEEPLPAECGCCPTMAETITVKREDEPLRFGPNRLEVSCDEGQTLVLGNCTLDVDDITPFRDVTMFRSGFPPTEEHPDGDRSRWGCSWYNPTGMAPRAIATAVCLPAE	not soluble
MGSDKIHHHHHHACRQVATESRVQPASFEVGSSMIADTFFLDSLSLFMPETNEEALINNIDRVYESNGRYFILDKRMKQVLCYTLSGKHLFTIHAVGNGKGEYVDLFDIAIDEAENKLLLLTYPSQILYYDLEGTYLSSYPLDDTYQSFAVDKGFIYLRNDTYANGVVSDYSLIVINKETGKQTSLLEPLYETAPFCSSGNYQITNTASVLFTRKFDNHIYRITGESIEPLYMVDWKDKAFPESDKQRQFQCNDLNQLCYQGKYVYTMTDLCDTPSYLLFRTNQPGMCLLSKATSTVNNYQVIINTDYQLPLPNYMSVEGKQSRIFFIYSSEVLCEQKKLSAEEDINEKMSSLLGQIKEGDNPVIFTYHVK	not soluble
MVVSAMAGLEENGSEPTAPRADPQGDPFLRTRFALPTRPGTFLRRERLVRHLDHALRTPLTMVNGAAGAGKTLLVADWAAGQDRSVAWLTTDAADQGCGTFWAYLLQALRACDVPLPAEVGFPADANRVDHTLLARLAADLSVRDRPVVVVLDEYDRVTDPEIADQLEFV	not soluble
MGSDKIHHHHHHMTAIVEPTWEERRTPEAAHEDDARSQYRKDYSRIIHSAALRRLQTKTQVLGLGDSDFYRTRLTHSLEVAQIGVGILLEIQRRFAGSNIEKYLPDERLLEAICLSHDYGHPPFGHGGERALNFAMREYGGFEGNAQTFRILSKLEKYSQNSGLNPTRRTLLGVLKYPTTYSNSMTNDFRRGTDIDKYPDAELKPPKCIYDCDLDVLDWVLKIFCSEDVTEFKKLDYKCKPLHKSLDCSLMETADDIAYTVHDLEDCIKLKLINREMWDAYIKSADYSEATRLEIEKWNQRIFSKEGNLVKQGISNMVYFFIHSVIQYEHEELSHPILKYGFKLGEEAARLRSAIQKIITNEVIKTHRVRVLESKGQRMIFSIFGELVRDPESFLPRETLDKYNKATGNLRMRVICDYVSGMTDEYATKTYQRFFTPKFGSVFDV	not soluble
MENSDVINFSCLEKELHSALQADRKYQRENDAKFRALNQKVASYEEFRDIVLASHLKPLDRNDISGSPRKQPWNPVACRTNYVCASSEQVQPQLSEVQPRSASEFIRDWRRFAGCSFEKYSLLVSLGGEALQKIFSTEIGLGLLGEFLLILSQCLKSGDEDRVTGVLDGLSKTGRFSINLSLLSQAEQEACEELFNKLKVAAGECHPYKDNSNTSVVCEAGLTHMEDNKTDITTTLKELAGKYGTEK	not soluble
MSLKIILVEDEENLARLLKEAIGDNFHSFTVAKDGIEGIEFFKKIRPDIVITDIMMPNLDGLKMAKELKRINPNIPIIILSAFSEKEKLLSAIDVGITKYFIKPFDAEELLEYISSITSRIENKILKLSDCYIFNKNTSSLYKNEKYIALSKNDIKFLYLLLDSKNRTVDDISIKEALWGGDASDERLRTFIKRFREKTSKMLIKNIKGFGYQLLLNEGHHHHHH	not soluble
MSLSVADIAYVVFNHVDLLEAERFYTDFGLTVAYRNEFEVAFRPAMERSYCYVARKADKPGLVSIGLSAASQEDLVVAAQFPEASPIQAIERPGGGQVVRLTSPDGVNFELVHGIDVYPARPVRDALSINTGIVKTRHGQWQRPELEPASILRLGHVALLTGDFKTNAQWLRSRFGFMPSDVLFADAPENQVGAFFHCTGGNPWTDHHTLALFPSDGSRMHHCSFEIQDLDAQFLGNKWLASRGWKPGWGVGRHILGSQIFDYWFDPAGNLVEHFTDGDLIQAGAAPGMHPLDDDALAMWGPPLTASKFVAMAAREGHHHHHH	soluble
MGSDKIHHHHHHAKESEQKVTIDSAKHEKHTKDKEENNSANTVFFDKINDLLVASVKEFEGTVGISYLDLETGEQRSVNGQHEFYTASTIKVPLTMLVADTVASGQKKWTDLIPYNAEEDYEEGTGIIAYNIQPEYPLKTLQEYAITYSDNIAKNMLYDTLGGDAKAKREMYQRYLHKTPSIEEPQFSSEDALVILQKLYTEKATKPDYQAIYDSMKQSVFHERMETPTTQGKVAHKIGSYDEFIHDMGILETPHPFALAIFTKGPDNAKSAAFIASVTDKLWQLQVSEYPNQ	not soluble
MAHHHHHHMDNSIKIKSAFLKENVGVKITGPCDEGFGLVMVPHIIINVDTRNTDIQLGKKSSEINYGIKLRKKGKDEYEEKVGIDLLKNVCETGKNFKFVAYIKGDELIIKWKVIEEGNIPIDIKKFKIKRMSPPITSIQVFSSMSDEKSFVLENKNYVVTNNMPEKCEALATNCFLSGNIDIEKCYQCSLLVENDSKSDVCYNFISRENKEKLNEERFKVKGSTEYEESVESELKGAIDLLISSFYKSDGENGENVLISFEDLNSTLEDDIINFCSLLKLVDLSGTFMNHQIGTTADAFNNIVKLLKEHKEEDEFVLRTKLRNPALCMKNVDDWVKSRCGLLTSDDSYVVIKKNSDTNGKNENNESNDEEYDGVIDLSTNENGNVKSIQFNDDIYCNDDYCNRWKNENNCISKIGVEDQGNCASSWAFASKLHFETLRCMKGYDHLGISALYLTNCSKGKISKRCTEGGNPSEFLEIVSNSGFLPTEFDYPYFYALVENSCPSGLNKWINLWEDVKLFDYKYEPNSIGSKGYSVYKSEMFKDNMDEYVKMIKSEIKNKGSVIAYINAQSVLTYDFNGKNILNMCGSKTTDHSINVIGYGHYKNKEGEEKSYWLVRNSWGYYWGDEGNFKVDMYGPSNCNYHFINTVLVFNIDIPMMNNNENNKKGLYNYFPKYTHEFYHNFYDQNFGSDNKISLINSNGSNKNDVNNAYTVHGQSGETEVQPSQLRSTANQDSNRGAVTSDPLRTQPETTSTSVKKMDVFQVLKHVKNSKIKVGLIKYDNDDEIGAHHSCTRAYSFDPEKYDECVEFCRKNWEQCKDKPSPGFCLTKLDESKGCFFCYV	not soluble
SEQIMSSQQVARRMMLDIGDKPQEHLVAIYLDTQNRIIQQKTVFIGGVRRSIAEPREILYYACHLMATSLIVVHNHPSGEAYPSRNDIDFTQKIKRSCDDLGICLLDHLIVGKSTYYSFREEREDFEL	not soluble
AVHITLDPDTANPWLILSEDRRQVRLGDTQQSIPGNEERFDSYPMVLGAQHFHSGKHYWEVDVTGKEAWDLGVCRDSVRRKGHFLLSSKSGFWTIWLWNKQKYEAGTYPQTPLHLQVPPCQVGIFLDYEAGMVSFYNITDHGSLIYSFSECAFTGPLRPFFSPGFNDGGKNTAPLTLCPLNIGSQG	not soluble
MSLKQAAENTLNLNPVIGIRGKDLLTSARMVLLQAVRQPLHSARHVAHFSLELKNVLLGQSELRPGDDDRRFSDPAWSQNPLYKRYMQTYLAWRKELHSWISHSDLSPQDISRGQFVINLLTEAMSPTNSLSNPAAVKRFFETGGKSLLDGLGHLAKDLVNNGGMPSQVDMDAFEVGKNLATTEGAVVFRNDVLELIQYRPITESVHERPLLVVPPQINKFYVFDLSPDKSLARFCLRNGVQTFIVSWRNPTKSQREWGLTTYIEALKEAIEVVLSITGSKDLNLLGACSGGITTATLVGHYVASGEKKVNAFTQLVSVLDFELNTQVALFADEKTLEAAKRRSYQSGVLEGKDMAKVFAWMRPNDLIWNYWVNNYLLGNQPPAFDILYWNNDTTRLPAALHGEFVELFKSNPLNRPGALEVSGTPIDLKQVTCDFYCVAGLNDHITPWESCYKSARLLGGKCEFILSNSGHIQSILNPPGNPKARFMTNPELPAEPKAWLEQAGKHADSWWLHWQQWLAERSGKTRKAPASLGNKTYPAGEAAPGTYVHEREGHHHHHH	not soluble
MKKTYVLDTNVLLQDPHAIFAFQDNEVVIPAVVLEEVDSKKRYMDEIGRNARHFSKLIDQLRGLGKLHEGVPLENGGKLRIELNHKSYEKVKDSFAEMTNDNRIIAVALNLSLEETEKPNGNQVILVSKDALVRVKADALRLKAEDFLNDRVIQYDRGY	not soluble
MGSDKIHHHHHHSEENESSGTIEMNQLPGTAQSFLSNYFPGQTPEKIERTNTDQENARLLYRVVFPNEVKVEFSENGGWKRLMIPDQKLPGSLDSLWGKIIEYVQQLFPDDPFIGIENACYGDCVLLSSGKKIAFYYDGTCIGYEMDIKDESGVPQPVRDFVATYFPDGVFQAVVEHIPNENVTAGYSFWLENGFKCVLNDRGQWTEVNGGTELLPVSILETLPAKVTEQLYRDYPAAQVTYIRLEGTCYTIQVSKTVYVTIDPESKPIVVPVMQAQALAEEYFGKLRSISISHPLHTDVLNFKVCLPNGFNMLVNEDASEWLNIDGNGFAFPEKLVASLPEKITEYISAHSNSEITRVDRSVAASFLVELTNGDGLMFDSQGGFLGKEKIELSISEKTYRYMRHQFPDDLNMYFSSYSIEGWIYKLGDGSQVRFDRDGNFVEMIAAAK	not soluble
GSHMSPSDLHLPVPGHPIAAIATPVGVGALAIVRISGAGVLDLADRVFRKVHGSGKLAEAAGYTAHFGRLYDGEEMVDEVIALVFRAPRSFTAEQMVEFTCHGGPVVVGRVLRLMLDNGCRLAEPGEFTRRAFLNGRIDLLQAEAIGEMIHARTESAYRTAVSQMKGDLSVRLGGLREQLIRSCALIELELDFSEEDVEFQSRDELTMQIETLRSEVNRLIDSYQHGRIVSEGVSTVIAGKPNAGKSTLLNTLLGQERAIVSHMPGTTRDYIEECFIHDKTMFRLTDTAGLREAGEEIEHEGIRRSRMKMAEADLILYLLDLGTERLDDELTEIRELKAAHPAAKFLTVANKLDRAANADALIRAIADGTGTEVIGISALNGDGIDTLKQHMGDLVKNLDKLHEASVLVTSLRHYEALRNASDALQNALELIAHESETELIAFELRAALDYVGQITGKVVNEEVLNTIFDKFCIGK	soluble
